# B1: NAD-dependent protein deacetylase sirtuin-1 (Homo sapiens), Q96EB6 (parent)
# chain: MADEAALALQPGGSPSAAGADREAASSPAGEPLRKRPRRDGPGLERSPGEPGGAAPEREVPAAARGCPGAAAAALWREAEAEAAAAGGEQEAQATAAAGEGDNGPGLQGPSREPPLADNLYDEDDDDEGEEEEEAAAAAIGYRDNLLFGDEIITNGFHSCESDEEDRASHASSSDWTPRPRIGPYTFVQQHLMIGTDPRTILKDLLPETIPPPELDDMTLWQIVINILSEPPKRKKRKDINTIEDAVKLLQECKKIIVLTGAGVSVSCGIPDFRSRDGIYARLAVDFPDLPDPQAMFDIEYFRKDPRPFFKFAKEIYPGQFQPSLCHKFIALSDKEGKLLRNYTQNIDTLEQVAGIQRIIQCHGSFATASCLICKYKVDCEAVRGDIFNQVVPRCPRCPADEPLAIMKPEIVFFGENLPEQFHRAMKYDKDEVDLLIVIGSSLKVRPVALIPSSIPHEVPQILINREPLPHLHFDVELLGDCDVIINELCHRLGGEYAKLCCNPVKLSEITEKPPRTQKELAYLSELPPTPLHVSEDSSSPERTSPPDSSVIVTLLDQAAKSNDDLDVSESKGCMEEKPQEVQTSRNVESIAEQMENPDLKNVGSSTGEKNERTSVAGTVRKCWPNRVAKEQISRRLDGNQYLFLPPNRYIFHGAEVYSDSEDDVLSSSSCGSNSDSGTCQSPSLEEPMEDESEIEEFYNGLEDEPDVPERAGGAGFGTDGDDQEAINEAISVKQEVTDMNYPSNKS
# Variants of: B1
# Conditions: with csk21_human CSNK2A1, P68400
# Chain of csk21_human CSNK2A1, P68400 (P68400 whole entry, looked up): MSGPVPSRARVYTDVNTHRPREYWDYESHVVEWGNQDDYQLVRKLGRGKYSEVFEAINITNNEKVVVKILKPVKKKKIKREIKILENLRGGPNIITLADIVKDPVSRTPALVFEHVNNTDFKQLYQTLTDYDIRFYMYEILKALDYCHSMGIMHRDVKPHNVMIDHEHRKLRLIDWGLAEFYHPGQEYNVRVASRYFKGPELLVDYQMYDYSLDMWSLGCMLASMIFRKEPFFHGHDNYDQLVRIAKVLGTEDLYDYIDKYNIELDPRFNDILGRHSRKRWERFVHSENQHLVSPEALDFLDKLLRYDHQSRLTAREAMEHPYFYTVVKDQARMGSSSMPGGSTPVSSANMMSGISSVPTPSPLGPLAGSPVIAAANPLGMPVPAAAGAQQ
row,Variant,effect of a mutation on the interaction
1,S659A;S661A,decreasing interaction

# — IntAct's records for PubMed 19236849
